Patent US20210180049A1 (CHUGAI SEIYAKU KABUSHIKI KAISHA, priority 2013, published 2021)

Assays:
hIL-6R = molecular target: T1, hIL-6R (Homo sapiens, UniProt P08887); assay: IgG ELISA for hIL-6R binding under conditions of Table 38; conditions: IgG 2.5 μg/mL
T1 sequence (P08887 20-357 limits assumed): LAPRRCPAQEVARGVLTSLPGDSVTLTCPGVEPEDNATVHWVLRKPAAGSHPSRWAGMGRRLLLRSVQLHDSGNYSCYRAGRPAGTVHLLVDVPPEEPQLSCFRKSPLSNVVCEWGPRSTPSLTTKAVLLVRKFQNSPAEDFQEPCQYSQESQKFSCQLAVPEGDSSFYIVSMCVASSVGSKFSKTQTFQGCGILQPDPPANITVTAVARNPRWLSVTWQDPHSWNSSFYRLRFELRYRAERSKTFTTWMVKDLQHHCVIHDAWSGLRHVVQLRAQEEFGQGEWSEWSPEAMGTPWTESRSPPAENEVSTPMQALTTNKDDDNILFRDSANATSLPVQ
Method: The selected six types of antibodies and the 6RNMSC1-2_F02 antibody were subjected to ELISA under the conditions indicated in Table 38.
First, a StreptaWell 96 microtiter plate (Roche) was coated with 100 μL of TBS containing biotin-labeled hIL-6R at room temperature for one or more hours. After removing biotin-labeled hIL-6R that are not bound to the plate by washing each well of the plate with TBST, the wells were blocked with 250 μL of Blocking Buffer (2% skim milk/TBS) for one or more hours. Blocking Buffer was removed from each well. 100 μL each of the purified IgGs prepared to 2.5 μg/mL using TBS under the conditions described in Table 38 were added to the wells, and the plate was allowed to stand at room temperature for one hour to allow each IgG to bind to biotin-labeled hIL-6R in each well. TBST was prepared to make the final concentrations shown in Table 38, and each well was washed with the prepared TBST. HRP-conjugated anti-human IgG antibody (BIOSOURCE) diluted with TBS containing the same small molecules was added to each well. The plate was incubated for one hour. After washing with TBST prepared to the final concentrations shown in Table 38, the chromogenic reaction of the solution in each well added with TMB single solution (ZYMED) was terminated by adding sulfuric acid. Then, the color development was measured by absorbance at 450 nm.

[1] = SPR (Biacore T200) binding of 6RNMSC1-2_F02 and variants to kynurenine
Method: An appropriate amount of protein A (Invitrogen) was immobilized onto Sensor chip CM4 (GE Healthcare) by the amine coupling method. The antibody of interest was captured thereon, and the antigen kynurenine and derivatives thereof were allowed to interact. The running buffer used was 50 mmol/L Tris-HCl, 150 mmol/L NaCl, 0.02% (w/v) Tween 20, 5% DMSO, pH 7.6. All measurements were carried out at 15° C. The antigens were diluted with the running buffer.
Then, the running buffer was run at a flow rate of 30 μL/min for 60 seconds to observe the dissociation of antigens from the antibody. Kinetic parameters, the association rate constant ka (1/Ms) and the dissociation rate constant kd (l/s), were calculated based on the sensorgrams obtained by the measurements. The dissociation constant KD (M) was calculated from these constants. Each parameter was calculated using Biacore T200 Evaluation Software (GE Healthcare).
(§1) Meanwhile, the type of sensor chip immobilized with Protein A was changed to Sensor chip Series S CM3 (GE Healthcare) to measure some of the variants. When kynurenine dissociation was too fast to determine the dissociation rate constant, a dissociation constant KD (M) was calculated by analysis of equilibrium values based on the degree of binding response during the interaction with each antigen (association phase). In this case also, Biacore T200 Evaluation Software (GE Healthcare) was used to calculate the parameters.
as §1
(§2) When kynurenine dissociation was too fast to determine the dissociation rate constant, the dissociation constant KD (M) was calculated by analysis of equilibrium values based on the degree of binding response when it is interacted with each antigen (association phase). Also in this case, the Biacore T200 Evaluation Software (GE Healthcare) was used to calculate parameters. […] Each variant and its parental antibody F02h011/F021003 were compared in terms of the KD value for kynurenine.
as §2, with “analyzing” for “analysis of”, “sequence” for “antibody”

B1: 6RNMSC1-2_F02: antibody binding hIL-6R in the presence of kynurenine; heavy chain SEQ ID NO: 32, light chain SEQ ID NO: 33 (antibody, listed as Homo sapiens, V domains shown)
VH: QVQLVQSGAEVKKPGSSVKVSCKASGGTFSSYAISWVRQAPGQGLEWMGGIIPIFGTANYAQKFQGRVTITADESTSTAYMELSSLRSEDTAVYYCARDAPVVARPRGAFDIWGQGTMVTVSS
VL: DIVMTQTPLSSPVTLGQPASISCRSSQSLVHSDGNTYLSWLQQRPGQPPRLLIHEISNRFSGVPDRFSGSGAGTNFTLKISRVEAEDVGVYYCMQATQFPRTFGQGTKVEIK
absorbance under condition 2 or 3 as compared to condition 1 (kynurenine-specific binding to biotin-labeled hIL-6R) (hIL-6R): markedly low | kynurenine binding (in words) ([1]; Biacore): confirmed once again to bind to kynurenine | Kd ([1]; Biacore T200, 15° C., 5% DMSO): 239 µM | ka for kynurenine ([1]; Biacore T200, 15° C., 5% DMSO): 709 M⁻¹ s⁻¹ | kd for kynurenine ([1]; Biacore T200, 15° C., 5% DMSO): 0.17 L/s
